These results are taken from patent US20230144436A1 (DYNE THERAPEUTICS, published 2023).

Assay [1] has as its target T1, human transferrin receptor 1 (human, UniProt P02786 89-760, limits assumed).
T1 construct: also called hTfR1; huTfR1
Kind of assay: Carterra LSA SPR array, IgG captured on anti-IgG lawn, hTfR1 as analyte, 25 C, 1:1 Langmuir fit. Here is the method:
Selected anti-TfR1 antibodies were tested for their binding affinity to human TfR1 for measurement of Ka (association rate constant), Kd (dissociation rate constant), and KD (affinity). […] The binding experiment was performed on Carterra LSA at 25 C. An anti-mouse IgG and anti-human IgG antibody “lawn” was prepared on a HC30M chip by amine coupling. 59 IgGs (58 mouse mAbs and 1 human mAb) were captured on the chip. Dilution series of hTfR1, cyTfR1, and hTfR2 were injected to the chip for binding (starting from 1000 nM, 1:3 dilution, 8 concentrations).
Binding data were referenced by subtracting the responses from a buffer analyte injection and globally fitting to a 1:1 Langmuir binding model for estimate of Ka (association rate constant), Kd (dissociation rate constant), and KD (affinity) using the Carterra™ Kinetics software. 5-6 concentrations were used for curve fitting.

In assay [2] the target is T1, human transferrin receptor 1. The assay can be described thus: average KD, antibody alone; method not given.
Assay [3] has as its target T2, cynomolgus monkey transferrin receptor 1 (cynomolgus monkey (Macaca fascicularis), UniProt Q5RDH6 89-760 (Pongo abelii entry), limits assumed).
T2 construct: also called cyTfR1; Cyno TfR1
T2 chain: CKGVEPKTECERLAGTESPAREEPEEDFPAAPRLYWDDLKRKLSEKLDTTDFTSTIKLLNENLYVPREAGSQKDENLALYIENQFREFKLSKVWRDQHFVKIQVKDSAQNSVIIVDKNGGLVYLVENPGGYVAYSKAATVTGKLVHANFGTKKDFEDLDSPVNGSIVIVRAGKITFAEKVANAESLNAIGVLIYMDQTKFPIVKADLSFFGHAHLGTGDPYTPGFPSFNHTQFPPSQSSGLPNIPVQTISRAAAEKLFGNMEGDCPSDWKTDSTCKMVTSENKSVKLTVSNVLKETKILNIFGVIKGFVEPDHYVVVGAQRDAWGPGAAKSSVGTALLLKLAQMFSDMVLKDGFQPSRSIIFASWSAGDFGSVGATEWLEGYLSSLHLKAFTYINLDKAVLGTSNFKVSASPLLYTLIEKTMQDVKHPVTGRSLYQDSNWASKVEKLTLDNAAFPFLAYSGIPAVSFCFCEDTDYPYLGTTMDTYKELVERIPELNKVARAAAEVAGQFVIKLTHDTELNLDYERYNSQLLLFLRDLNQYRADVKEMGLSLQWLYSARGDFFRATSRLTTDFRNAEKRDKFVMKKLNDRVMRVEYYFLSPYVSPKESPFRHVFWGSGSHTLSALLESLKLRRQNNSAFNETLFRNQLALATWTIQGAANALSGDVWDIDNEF
Kind of assay: average KD, antibody alone; method not given.

B1: 3-M12 (antibody, V domains shown)
VH: DVQLQESGPGLVKPSQSLSLTCSVTGYSITSGYYWNWIRQFPGNKLEWMGYITFDGANNYNPSLKNRISITRDTSKNQFFLKLTSVTTEDTATYYCTRSSYDYDVLDYWGQGTTLTVSS
VL: DIQMTQTTSSLSASLGDRVTISCRASQDISNFLNWYQQRPDGTVKLLIYYTSRLHSGVPSRFSGSGSGTDFSLTVSNLEQEDIATYFCQQGHTLPYTFGGGTKLEIK
notes: Tested as a mouse monoclonal IgG
As a reminder, the Kd is the constant that tells how readily two partners part at equilibrium. The term kon denotes the rate constant with which the complex forms. Turning to B1, the values for the Kd in assay [1], in assay [2] and in assay [3] were 0.768 nM, 0.768 nM and 5.18 nM, respectively. The same molecule registered a kon in assay [1] of 166000 M⁻¹ s⁻¹.

B2: 4-C5 (antibody, V domains shown)
VH: QVQLQQSGAELMKPGASVKISCKATGYTFSNYWIEWVKQRPGHGLEWIGEILPGSGSTNYNENFKGKATFTADTSSNTAYMQLSSLTSEDSAVYYCARRGAYGNFHYWGQGTTLTVSS
VL: EIVLTQSPALMAASPGEKVTITCSVSSSISSSNLHWYQQKSETSPKPWIYGTSNLASGVPVRFSGSGSGTSYSLTISSMEAEDAATYYCQQWRSYPYTFGGGTKLEIK
notes: Tested as a mouse monoclonal IgG; also called 4-C05
B2: the figures for the dissociation constant Kd in assay [1], in assay [2] and in assay [3] were 1.61 nM, 1.38 nM and 13.6 nM, respectively. Besides, in assay [1], the kon was found to be 30100 M⁻¹ s⁻¹.

B3: 8-D15 (antibody, V domains shown)
VH: QVQLKESGPGLVAPSQSLSITCTVSGFSLTSYAITWVRQSPGKGLEWLGLIWTGGGTNYNSALKSRLSISKDNSKSQVFLKMNSLQTDDTARYYCARIYDGYYRYFDVWGTGTTVTVSS
VL: RIVLTQTPKFLLVSAGDRVTMTCKASQSVSNDVAWYQQKPGQSPKLLIYYASNRYTGVPDRFTGSGYGTDFTFTISTVQAEDLAVYFCQQDYSSPWTFGGGTKLEIK
notes: as for B1
B3: the values for the dissociation constant (Kd) in assay [1], in assay [2] and in assay [3] were 8.22 nM, 9.15 nM and 11.1 nM, respectively. In assay [1], this molecule came in with a kon of 31300 M⁻¹ s⁻¹.

B4: 4-J22 (antibody, V domains shown)
VH: EVQLQQSGAELVRSGASVKLSCTASGFNIKDYYIHWVKQRPEQGLEWIGWIDPENADTEYAPKFQGKATMTPDTSSNTAYLQLSSLTSEDTAVYYCYAWDYSMDYWGQGTSVTVSS
VL: DVVMTQTPLSLSVSLGDQASISCRSSQSLVHSNGNTYLHWYLQKPGQSPKLLIYKVSNRFSGVPDRFSGSGSGTDFILKISRVEAEDLGVYFCSQNTHVPYTFGGGTRLEIK
notes: as for B1
In the case of B4, the equilibrium dissociation constant (Kd) came out at 3.41 nM in assay [2] and 1.37 nM in assay [3].

B5: 9-D4 (antibody, V domains shown)
VH: QVQLQQSGTELARPGASVKLSCKASGFTFTDYGINWVKQRTGQGLEWIGEIYPSSGNSYYNEKFKAKATLTADKSSSTAYMELRSLTSEDSAVYFCARSTYYGSPIDYWGQGTTLTVSS
VL: DIVMTQSHKFMSTPVGDRVSITCKASQDVDTTVAWYQQKPGQSPKLLIYWASTRQIGVPDRFTGSGSGTDFTLTISNVQSEDLADYFCQQYSTYPLTFGGGTKLEIK
notes: Tested as a mouse monoclonal IgG; also called 9-D04
As to B5, the values for the equilibrium dissociation constant (Kd) in assay [1], in assay [2] and in assay [3] were 5.86 nM, 5.8 nM and 0.868 nM, respectively. In addition, in assay [1], the on-rate constant (kon) turned out to be 42000 M⁻¹ s⁻¹.

B6: 3-A4 (antibody, V domains shown)
VH: EVQLQQSGAELVRPGASVKLSCTASGFNIKDDYMYWVKQRPEQGLEWIGWIDPENGDTEYASKFQDKATVTADTSSNTAYLQLSSLTSEDTAVYYCTLWLRRGLDYWGQGTSVTVSS
VL: DIVMTQAAPSVPVTPGESVSISCRSSKSLLHSNGYTYLFWFLQRPGQSPQLLIYRMSNLASGVPDRFSGSGSGTAFTLRISRVEAEDVGVYYCMQHLEYPFTFGGGTKLEIK
notes: Tested as a mouse monoclonal IgG; also called 3-A04
Consider B6, for which the figures for the Kd in assay [1], in assay [2] and in assay [3] were 0.436 nM, 0.436 nM and 2.32 nM, respectively. Moreover, the kon in assay [1] is 447000 M⁻¹ s⁻¹.

B7: 8-O17 (antibody, V domains shown)
VH: QVQLKESGPGLVAPSQSLSITCTVSGFSLTNYGVHWVRQPPGKGLEWLVVIWNDGSATYNSALESRLSISKDNSKSQVFLKMNSLQTDDTAMYYCARHESSNPFAYWGQGTLVTVSA
VL: DILLTQSPAILSVSPGERVSFSCRASQSIGTSIHWYQQRTNGSPRLLIKSASESIAGIPSRFSGSGSGTDFTLSINSVESEDIADYYCQQNNRWPYTFGGGTKLEIK
notes: as for B1
In the case of B7, the dissociation constant (Kd) in assay [1] worked out at 1.83 nM; in assay [2], 2.24 nM; in assay [3], 1.1 nM. Moreover, in assay [1], the kon turned out to be 49900 M⁻¹ s⁻¹.

B8: 4-O12 (antibody, V domains shown)
VH: EVQLQQSGAELVRPGASVKLSCTASGFNIVDDYMHWVKQRPEQGLEWIGWIYPENADTEYASKFQGKATITADTSSNTAYLQLSSLTSEDTAVYYCTTATGTGWFAYWGQGTLVTVSA
VL: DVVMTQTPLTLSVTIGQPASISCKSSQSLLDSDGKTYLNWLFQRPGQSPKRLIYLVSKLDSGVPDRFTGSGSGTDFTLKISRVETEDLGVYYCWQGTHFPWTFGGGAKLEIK
notes: as for B1
As for B8, the Kd was determined as 1.8 nM in assay [1], 1.27 nM in assay [2] and 270 nM in assay [3]. The same molecule displayed a kon in assay [1] of 79800 M⁻¹ s⁻¹.

B9: 8-K6 (antibody, V domains shown)
VH: QVHLQQPGAELVKPGASVKMSCKASGYTFTSYWITWVKQRPGQGLEWIGDIFPNSGRTNYDEKFKSKATLTVDTSSSTAYMQLSSLTSEDSAVYFCAREGNFGSLDYWGQGTTLTVSS
VL: QIVLTQSPAIMSASPGEKVTMTCSANSNLNYMNWYHQKSGTSPKRWIYDTSKLASGVPARFSASGSGTSYSLTISSMEAEDAATYYCQQWSRNPLTFGAGTRLELK
notes: Tested as a mouse monoclonal IgG; also called 8-K06
With B9, the Kd in assay [1] came to 0.0694 nM; in assay [2] it was 0.0678 nM; in assay [3], 0.376 nM. In addition, the kon in assay [1] is 144000 M⁻¹ s⁻¹.

B10: 9-C4 (antibody, V domains shown)
VH: EVQLMESGGDLVKPGGSLKLSCAASGFTFSSYGLSWVRQTPDKRLEWVATITSGGSYTYYPDSVKGRFTISRDNARNTLYLQMFSLKSEDTAMYYCALWSLDYWGQGTTLTVSS
VL: QIVLTQSPAIMSASPGEKVTMTCSANSSLSYMHWYQQKPGTSPKRWIYDTSELASGVPARFSGSGSGTSYSLTISSMEAEDAATYYCHQRRSYPWTFGGGTKLEIK
notes: Tested as a mouse monoclonal IgG; also called 9-C04
Consider B10, for which the values for the equilibrium dissociation constant (Kd) in assay [1], in assay [2] and in assay [3] were 14.1 nM, 14.8 nM and 12 nM, respectively. For the same molecule, the on-rate (kon) in assay [1] amounted to 41000 M⁻¹ s⁻¹.

B11: 3-M9 (antibody, V domains shown)
VH: EVQLQQSGAELVRPGASVKLSCTASDFNIKDDYIHWVKQRPEQGLEWIGRIDPANGNTKYAPKFQDKATITADTSSNTAYLQLSSLTSEDTAVYYCALGYTYWGQGTTLTVSS
VL: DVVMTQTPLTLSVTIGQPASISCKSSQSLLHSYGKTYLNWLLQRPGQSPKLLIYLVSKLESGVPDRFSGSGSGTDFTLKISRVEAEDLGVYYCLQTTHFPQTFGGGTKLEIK
notes: Tested as a mouse monoclonal IgG; also called 3-M09
B11: the Kd in assay [1] came to 2.54 nM; in assay [2], 2.5 nM; in assay [3], 4.37 nM. This molecule yielded a kon in assay [1] of 150000 M⁻¹ s⁻¹.

B12: 9-K23 (antibody, V domains shown)
VH: QVTLKESGPGMLQPSQTLSLTCSFSGFSLNTYDVGVGWIRQPSGKGLEWLANIWWNDDKYYNSALKSRLTISKDTSNNQVFLKISSVDTADTATYYCTLYSYDGGFAYWGQGTLVTVSA
VL: QIVLTQSPAIMSASLGERVTMTCTASSSVSSSYLHWYQQKPGSSPKLWIYSTSNLASGVPARFSGSGSGTSYSLTISSMEAEDAATYYCHQYHRSPYTFGGGTKLEIK
notes: as for B1
B12: the Kd turned out to be 0.401 nM in assay [1], 0.32 nM in assay [2] and 0.662 nM in assay [3]. Besides, in assay [1], the kon is 54000 M⁻¹ s⁻¹.

B13: 6-D3 (antibody, V domains shown)
VH: QVQLQQPGAELVKPGASVKMSCKASGYTFTRHWITWVKQRPGQGLEWIGDIYPGSGRTNYNEKFKSTATLTVDTSSSTAYMQLSSLTSEDSAVYYCARDGYLYINYFDYWGQGTTLTVSS
VL: ENVLTQSPAIMSASPGEKVTMTCSASSSVSFMHWFQQKSSTSPKLWIYDTSKLASGVPGRFSGSGSGSSYSLTISSMAAEDVATYYCFQGSGYPYTFGGGTKLEIK
notes: Tested as a mouse monoclonal IgG; also called 6-D03
Consider B13, for which the dissociation constant (Kd) in assay [1] was found to be 0.986 nM; in assay [2], 0.986 nM; in assay [3], 0.778 nM. Moreover, in assay [1], the association rate constant (kon) stood at 108000 M⁻¹ s⁻¹.
